According to patent US20230279105A1 (SINGLE CELL TECHNOLOGY, published 2023):
Residue numbers refer to the chain shown, from its start. One block for each binder: values may come before it.

Molecular target: T1, Human TIM-3 Human Fc tagged protein (human, fluorescently labeled with HiLyte Fluor 555 (sites not given))
T1 construct: Bought construct; also called TIM-3 protein tagged with human Fc; ACROBiosystems catalog no: TM3-H5258
Assay: capture slide probed with labeled TIM-3-Fc;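 further: IgG from single CD138-enriched plasma cells, isolated from lymphocytes, immobilized on a derivatized glass slide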

binding result: binds
B1: SCT-Fa022 (antibody, V domains shown)
VH: EVQLQQPGAELVKPGASVKLSCKASGYTFTSYWIHWVKQRPGRGLEWIGRIDPNSGGTKYNEKFKSKATLTVDKPSSTAYMQLSSLTSEDSAVYYCTKDGNTPYYAMDYWGQGTSVTVSS
VL: SIVMTQTPKFLLVSAGDRVTITCKASQSVSNAVAWYQQKPGQSPKLLIYYASNRYTGVPDRFTGSGYGTDFTFTISTVQAEDLAVYFCQQDYSSPLTFGAGTKLELK
notes: murine IgG

binding result: binds
B2: SCT-Fa195 (antibody, V domains shown)
VH: QVQLRQSGAELVRPGTSVKLSCKASGYTLTDYYINWVKQRPGQGLEWIARIYPGNGNTYYNEKFKGKATLTAEKSSSTVNMQVSSLTSEDSAVYFCARGGSSDRIYYYAMDYWGQGTSVTVSS
VL: DIQVTQSSPFLSVSLGGRVIISCKASDHINNWLAWYQQKPGNAPRLLISGAINLETGVPSRFSGSGSGKDYTLSISSLQTEDVATYYCQQYWNTPYTFGGGTKLEIK
notes: murine IgG

binding result: binds
B3: SCT-Fa002 (antibody, V domains shown)
VH: EFQLQQSGPELVKPGASVKISCKASGYSFTDYNMNWVKQSNGKSLEWIGVNNPKYGTTTYNQKFKGKATLTVDQSSSTAYMQLNSLTSEDSAVYYCARRGYYYGSSYGYFDVWGTGTTVTVSS
VL: DILMTQSPSSMSVSLGDRVSIICHASQDIRSNIGWLQQKPGKSLKGLIYHGTNLEDGVPSRFSGSGSGADYSLTISSLESEDFADYYCVQYVQFPRTFGGGTKLEIK
notes: murine IgG

binding result: binds
B4: SCT-Fa185 (antibody, V domains shown)
VH: QVQLQQSGAELVRPGTSVRVSCTASGYAFTNYLIEWVKQRPGQGLEWIGVISPGSGGTTYNEKFKGKATLTADKSSSTAYMQFSSLTSEDSAVYFCARSAYGHVFDYWGQGTTLTVSS
VL: DIKMTQSPSSMYASLGERVTITCKASQDINSYLKWFQQKPGKSPKTLIYRANRLVDGVPSRFSGSGSGQDYSLTISSLEYEDMGIYYCLQYDEFPYTFGGGTKLEIK
notes: murine IgG

binding result: binds
B5: SCT-Fa186 (antibody, V domains shown)
VH: QVQLQQSGPELARPGASVKLSCKASGYTFRSNGISWVKQRTGQGLEWIGEIYPRSGNIYYNEKVKDKATLTADKSSNTAYMAVRSLTSEDSAVYFCARSTTVVAGGFDFWGQGTVLTVSS
VL: DIVMTQSPSSLTVTAGEKVTMSCKSSQSLLNSRTQKNSLTWYQQKPGQPPKLLIYWASTRESGVPDRFTGSGSGTDFTLTISSVQAEDLAIYYCQNDYTYPWTFGGGTELEIK
notes: murine IgG

binding result: binds
B6: SCT-Fa193 (antibody, V domains shown)
VH: QVQLRQSGAELARPGASVKLSCKASGYTFTSYGITWVKQRTGQGLEWIGEIYPRSGNIYYNEKFKGKVTLTADKSSSTAYMELRSLTSEDSAVYFCARSTAVVAGGFDYWGQGTTLTVSS
VL: B5 VL with I2V, A15T, K18R, M21V, S22N, T34I, T99N, E109K
notes: murine IgG

binding result: binds
B7: SCT-Fa192 (antibody, V domains shown)
VH: B6 VH with S31N
VL: B5 VL with A15T, M21V, S22N, T34I, Y55F, G72E, T99N, E109K
notes: murine IgG

binding result: binds
B8: SCT-Fa020 (antibody, V domains shown)
VH: EVQLHQSGPELVKPGASVKMSCKASGYTFTDYNMHWVKQSHGKSLEWIGYINPNNGGIIYNQNFKGKATLTVNKSSTTAYMELRSLTSEDSAVYYCVGSLDYWGQGTTLTVSS
VL: DIQMTQTTSSLSASLGDRVTISCRASQDINNYLNWYQQKPDETVKLLIYYTSRLHSGVPSRFSGSGSGTDYSLTISNLDQEDFATYFCQQGYMLPLTFDAGTKLELK
notes: murine IgG

binding result: binds
B9: SCT-Fa023 (antibody, V domains shown)
VH: EVQLQQSGAELVKPGASVKLSCTASDFNIKDYYLHWVKQRTEQGLEWIGRIDPDDGETKYGPKFQGKATITADTSSNTAFLQLSSLTSEDTAVYFCSRSNPYYFDYWGQGTTLTVSS
VL: DIQMNQSPSSLSASLGDTITITCHVSQNINVWLSWYQQKPGNIPKLLIYKASNLHTGVTSRFSGSGAGTGFTLTISSLQPEDIATYYCQQGQNYPYTFGGGTKLEIK
notes: murine IgG
